# Test results reported in article PMC9215227 (Journal of Virology, 2022).
# Target: NP of SARS-CoV-2 (catalog no. 40588-V07E; Sino Biological) (SARS-CoV-2, UniProt P0DTC9 1-419)
# Test: SPR; […], Biacore T200; 0.01 M HEPES pH 7.4, 0.15 M NaCl, 3 mM EDTA, 0.05% Tween 20; […]; 1:1 binding model
# Settings: both partners purified
binder,measurement,value
6×His-Flag-G3BP2 (natural protein) MVMEKPSPLLVGREFVRQYYTLLNKAPEYLHRFYGRNSSYVHGGVDASGKPQEAVYGQNDIHHKVLSLNFSECHTKIRHVDAHATLSDGVVVQVMGLLSNSGQPERKFMQTFVLAPEGSVPNKFYVHNDMFRYEDEVFGDSEPELDEESEDEVEEEQEERQPSPEPVQENANSGYYEAHPVTNGIEEPLEESSHEPEPEPESETKTEELKPQVEEKNLEELEEKSTTPPPAEPVSLPQEPPKAFSWASVTSKNLPPSGTVSSSGIPPHVKAPVSQPRVEAKPEVQSQPPRVREQRPRERPGFPPRGPRPGRGDMEQNDSDNRRIIRYPDSHQLFVGNLPHDIDENELKEFFMSFGNVVELRINTKGVGGKLPNFGFVVFDDSEPVQRILIAKPIMFRGEVRLNVEEKKTRAARERETRGGGDDRRDIRRNDRGPGGPRGIVGGGMMRDRDGRGPPPRGGMAQKLGSGRGTGQMEGRFTGQRR,Kd,103 nM
